According to patent publication US20260184766A1 (priority 2022, published 2026):

Key:
[1] = test system: SARS CoV-2 "South African" B.1.351 variant Spike protein
[2] = test system: pseudotyped virus carrying B.1.351 or "SA" variant (beta lineage) spike; format: cell-based, SARS-CoV-2; settings: read-out: Virus Neutralization Pseudovirus (nM) Beta

| Sequence | stability conferred to the knob sequence by N- and C-terminal residues, in words [1] | EC50 [2] [nM] |
| --- | --- | --- |
| DYTCPDGYEHTCGCIGGCGCKRSACIGALCCQASLGGWLSDMP [G3-C] | improved stability | – |
| GMTCPDGYEHTCGCIGGCGCKRSACIGALCCQASLGGWLSDRS [G3-Z] | improved stability | – |
| HWTCPDGYEHTCGCIGGCGCKRSACIGALCCQASLGGWLSDSF [2G3 knob HWSF] | improved stability | 7.82 ± 1.59 |
| ISTCPDGYEHTCGCIGGCGCKRSACIGALCCQASLGGWLSDTV [2G3 knob ISTV] | improved stability | 20.9 ± 7.95 |
| LVTCPDGYEHTCGCIGGCGCKRSACIGALCCQASLGGWLSDIP [G3-G] | improved stability | – |
| SVTCPDGYEHTCGCIGGCGCKRSACIGALCCQASLGGWLSDYI [G3-E] | improved stability | – |
| TCPDGYEHTCGCIGGCGCKRSACIGALCCQASLGGWLSD [2G3 Knob] | – | 15.7 ± 2.61 |
